In publication PMC2791859:

Legend:
[1] = target: FcγRIa, recombinant extracellular domain (UniProt P12314); test: SPR; Biacore 3000; extracellular domain of FcγRIa immobilized covalently or through enzymatic, site-directed biotinylation; antibody as analyte; kinetic analysis at pH 7.4
[2] = target: FcRn, recombinant extracellular domain (UniProt P55899); test: SPR; Biacore 3000; extracellular domain of FcRn immobilized covalently or through enzymatic, site-directed biotinylation; antibody as analyte; steady-state analysis at pH 6.0
UniProt P55899, sequence (P55899 whole entry, looked up, the tested form may be a part): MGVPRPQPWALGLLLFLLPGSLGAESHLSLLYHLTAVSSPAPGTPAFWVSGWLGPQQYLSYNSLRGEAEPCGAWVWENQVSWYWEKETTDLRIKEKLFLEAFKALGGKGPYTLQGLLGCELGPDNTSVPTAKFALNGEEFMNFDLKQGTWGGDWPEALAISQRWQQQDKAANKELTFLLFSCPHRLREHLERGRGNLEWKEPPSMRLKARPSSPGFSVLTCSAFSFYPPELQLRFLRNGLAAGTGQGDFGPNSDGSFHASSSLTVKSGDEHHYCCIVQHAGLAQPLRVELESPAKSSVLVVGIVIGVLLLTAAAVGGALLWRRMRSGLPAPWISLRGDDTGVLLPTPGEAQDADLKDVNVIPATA

UniProt P12314, sequence (P12314 16-292): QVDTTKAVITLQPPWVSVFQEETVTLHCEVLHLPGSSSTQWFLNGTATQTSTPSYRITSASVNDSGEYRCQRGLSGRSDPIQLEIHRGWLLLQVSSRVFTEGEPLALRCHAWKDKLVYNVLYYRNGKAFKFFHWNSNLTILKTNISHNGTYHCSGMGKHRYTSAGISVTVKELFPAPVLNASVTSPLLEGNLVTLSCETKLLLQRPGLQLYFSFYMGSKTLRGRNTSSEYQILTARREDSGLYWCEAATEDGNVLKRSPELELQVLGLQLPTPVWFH

human IgG1 antibody Variant FS (F241S F243S)
Kd [1]: 74 nM
koff [1]: 0.0021 s⁻¹
kon [1]: 29000 M⁻¹ s⁻¹
Kd [2]: 2700 nM
